Changes are numbered by the printed parent chain. Numbers in names are those of the source.
Columns and labels:
NFS-60 cells = experiment: M-CSF dependent NFS-60 bioassay (MTT readout, compared to M-CSF standard); format: cell-based
Method: Fractionated products were analyzed on reducing SDS-PAGE and stained with Coomassie, according to the method of Laemmli, Nature […] 227:680-685 (1970). Biological activity was determined using the M-CSF dependent NFS-60 bioassay (See Example 10 below). Antibody neutralization experiments were carried out by pre-incubating approximately 5,000 units of M-CSF dimer with varying dilutions of the neutralizing M-CSF 5H410 Mab (made to refolded E. coli CΔ150 M-CSFα dimer) prior to bioassay. (Halenbeck et al, Bio/Technology 7:710 (1989)
The purified mutein dimers were subjected to bioassay using NFS-60 cells which is an M-CSF dependent cell line which forms colonies in the presence of active M-CSF. Standards and purified mutein samples were serially diluted 1:2 in RPMI media (10% fetal bovine serum) in a 50 microliter volume in 96-well microtiter plates. 50 microliters NFS-60 cells (ATCC NO. CRL 1838), maintained in 4000U/ml M-CSF, washed 2×, and diluted to a concentration of 1×10^5 cell/ml, were added to each sample well. Plates were incubated at 37° C., 5% CO2 for 44 h. 5 mg/ml MTT dye was added to each sample and incubation continued for 4 h. 20% SDS was added to each sample. The plates were wrapped in foil and left overnight. The absorbance of each sample was read at 570 nm and compared to a standard of known M-CSF concentration.

[1] = test system: cell surface M-CSF receptor (NFS60 cell M-CSF receptors); experiment: Radioligand displacement of 125I-M-CSF from NFS-60 cell M-CSF receptors (NFS-60 receptor competition assay); format: binding; details: for IC50: 4° C., 20 hours, 300,000 NFS-60 cells, read-out: IC50 (concentration required to inhibit 50% of labeled M-CSF binding to the cells); for M-CSF receptor-binding ability: compared to parental M-CSFα; for fold decrease in binding affinity: relative to M-CSFα NΔ3CΔ158
Method: FIG. 7 illustrates the competitive binding of M-CSF and M-CSF muteins to NFS60 cell M-CSF receptors.
The purified heterodimer was submitted to the NFS60 cell based bioassay described in Example 8. The calculated specific activity was 2.9×10^6 U/mg which correlated to a 35-fold reduction as compared to the activity of the parental M-CSF heterodimer described in Example 10. The relative binding affinity to cell surface M-CSF receptor was measured by radioligand displacement in which the displacement of ^125 I-M-CSF from an M-CSF receptor by an M-CSF mutein was measured using methods well known in the art. In brief, the following were added in a final volume of 100 μl in each well of a 96-well cell culture plate: approximately 80,000 cpm of purified recombinant human M-CSF labeled with ^125 I (using Iodobeads as described by the manufacturer, Pierce, Rockford, Ill.), 300,000 NFS-60 cells that had been washed and then grown for 18 hours in growth medium minus the normal maintenance level of M-CSF, plus unlabeled M-CSF that had been serially diluted in the same medium. The plates were incubated at 4° C. for 20 hours and the cells were collected on glass-fiber filters. Maximum binding was measured in the absence of unlabeled M-CSF and non-specific binding was measured in the presence of 1000-fold greater concentration of unlabeled M-CSF (compared to labeled M-CSF). The concentration of M-CSF required to inhibit 50% of the labeled M-CSF binding to the cells (IC50) was used to determine differences in affinity. Results are expressed as percent displacement of radioactive M-CSF versus mutein concentration (FIG. 7).

[2] = Bioactivity after diethylpyrocarbonate (DEPC) modification of histidines; details: 1:100 DEPC:histidine ratio

B1: 158/221F heterodimer: one chain of short clone (amino acid 4 to 158) and one chain of long clone 221F (protein, UniProt P09603 33-554, looked up, variant C157S C159S)
Macrophage colony-stimulating …: EEVSEYCSHMIGSGHLQSLQRLIDSQMETSCQITFEFVDQEQLKDPVCYLKKAFLLVQDIMEDTMRFRDNTPNAIAIVQLQELSLRLKSCFTKDYEEHDKACVRTFYETPLQLLEKVKNVFNETKNLLDKDWNIFSKNCNNSFAECSSQDVVTKPDSNSLYPKAIPSSDPASVSPHQPLAPSMAPVAGLTWEDSEGTEGSSLLPGEQPLHTVDPGSAKQRPPRSTCQSFEPPETPVVKDSTIGGSPQPRPSVGAFNPGMEDILDSAMGTNWVPEEASGEASEIPVPQGTELSPSRPGGGSMQTEPARPSNFLSASSPLPASAKGQQPADVTGTALPRVGPVRPTGQDWNHTPQKTDHPSALLRDPPEPGSPRISSLRPQGLSNPSTLSAQPQLSRSHSSGSVLPLGELEGRRSTRDRRSPAEPEGGPASEGAARPLPRFNSVPLTDTGHERQSEGSFSPQLQESVFHLLVPSVILVLLAVGGLLFYRWRRRSHQEPQRADSPLEQPEGSPLTQDDRQVELPV
modifications: heterodimer short/long clone
notes: one chain of short clone (amino acid 4 to 158) and one chain of long clone 221F
For B1, the specific activity (NFS-60 cells; calculated using the peak fraction of preparative Phenyl-HPLC) was 8.0×10^7 units/mg and the “biological activity of heterodimer compared to the two homodimers” value (NFS-60 cells; refolded dimers, SE-HPLC (72 hr of refolding) or Phenyl-HPLC fractions) was “fully biologically active in vitro”.

B2: Q20A, V78K: double mutant of M-CSF, solvent accessible residues in central portion of helices A and C (protein, UniProt P09603 33-554, looked up, variant Q20A V78K)
Macrophage colony-stimulating …: B1 Macrophage colony-stimulating … with Q20A, V78K, S157C, S159C
With B2 the IC50 [1] was roughly 0.1 nM, the M-CSF receptor-binding ability [1] was “decreased” and the “fold decrease in binding affinity” value [1] was 5 fold. The “fold lower specific biological activity than parental M-CSFα reference standard” value (NFS-60 cells; Example 11) was 8-10 fold and the specific biological activity (NFS-60 cells; Example 11) was 1.4×10^7 U/mg.

B3: M-CSF: macrophage colony stimulating factor, form not specified, treated with DEPC to modify histidines (protein, UniProt P09603 33-554, looked up)
Macrophage colony-stimulating …: B1 Macrophage colony-stimulating … with S157C, S159C
modifications: DEPC-modified histidines
In the case of B3, the “bioactivity after DEPC modification of histidines” value [2] is reported as “significantly reduced bioactivity”.

B4: H9A, H15A: M-CSF NΔ3CΔ158 with His 9 and His 15 mutated to Ala, refolded dimer (pTAF172-2) (protein, UniProt P09603 33-554, looked up, variant H9A H15A)
Macrophage colony-stimulating …: B1 Macrophage colony-stimulating … with H9A, H15A, S157C, S159C
modifications: residues 4-158, dimer
With B4 the IC50 [1] was roughly 1000 nM, the M-CSF receptor-binding ability [1] was “greatly decreased” and the “fold decrease in binding affinity” value [1] was 50,000 fold. The “fold reduction in biological activity versus parental M-CSF NΔ3CΔ158” value (NFS-60 cells; Example 10) was ~10,000 fold and the specific activity (NFS-60 cells; Example 10, purified refolded mutein dimers, same assay as parental reference) was 7.6×10^3 U/mg.

B5: M-CSFαNΔ3CΔ158 H9A, H15A/M-CSFβNΔ3CΔ221C157S, C159S heterodimer: one subunit of M-CSFα NΔ3CΔ158 H9A, H15A and one subunit of M-CSFβ NΔ3CΔ221 C157S, C159S (protein, UniProt P09603 33-554, looked up, variant H9A H15A C157S C159S)
Macrophage colony-stimulating …: B1 Macrophage colony-stimulating … with H9A, H15A
modifications: heterodimer of truncated α and β forms
For B5, the “fold increase of IC50 compared to M-CSFα NΔ3CΔ158” value [1] was 30 fold, the IC50 [1] was roughly 0.5 nM and the “fold reduction in specific activity compared to parental M-CSF heterodimer” value (NFS-60 cells; Example 12) was 35 fold. The calculated specific activity (NFS-60 cells; Example 12, purified heterodimer) was 2.9×10^6 U/mg.

From US5866114A, “Crystallization of M-CSFα” (Chiron Corporation, priority 1995, dated 1999)
